The text below walks through data of the nanobody polyreactivity screen of Harvey et al. (2022).

The nature of the series: yeast display, Sf9 membrane polyspecificity reagent, FACS + sequencing; frameworks hold sequencing errors. The essentials:
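A nanobody's polyreactivity label depends on the gate it was sorted from. Yeast display cells were stained with 10% biotinylated, detergent-solubilized Sf9 membrane reagent for 1 hour at 4 °C, enriched on streptavidin microbeads and sorted by FACS. The low and high (top ~1%) gates were set on anti-HA fluorescence for expression and streptavidin fluorescence for reagent binding.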
For “QVQLVESGGGLVQAGGSLRLSCAASGITFTSNTMGWYRKAPGKERELVAAISKSGGSTYYADSVKGRFTISRDNAKNTVYLQMNSLKPEDTAVYYCAKDSYYYRRDVTVDYWGQGTQVTVSS”, the “polyreactivity (PSR sort gate)” value is “low polyreactivity”.
The same measure for “QVQLVESGGGLVQAGGSLRLSCAASGITFTSYAMGWYRQAPGKERELVAAISWSGDRTYYADSVKGRFTISRDNAKNTVYLQMNSLKPEDTAVYYCAADQFTGSVWAYYYWGQGTQVTVSS”: “high polyreactivity”; for “QVQLVESGGGLVQAGGSLRLSCAASGITFTVYAMGWYRQAPGNEREVVAVINESGGSTYYADSVKGRFTISRDNAKNTVYLQMNSLKPEDTAVYYCNKTRVYVSSTYDYWGQGTQVTVSS”: “low polyreactivity”; for “QVQLVESGGGLVQAGGSLRLSCAASGITFTYNAMGWYRQAPGKERELVASITLSGGNTYYADSVTGRFTISRDNAKNTVYLQMNSLKPEDTAVYYCAADDRGSSYGHFTVEYGYWGQGTQVTVSS”: “low polyreactivity”.
For the sequence “QVQLVESGGGLVQAGGSLRLSCAASGITFTYYAMGWYRQAPGKERELVAAITSGGDTYYADSVKGRFTISRDNAKNTVYLQMNSLKPEDTAVYYCAAEAVVVTKYSYWTYGLYDYWGQGTQVTVSS”, the “polyreactivity (PSR sort gate)” value is listed as “high polyreactivity”.
For “QVQLVESGGGLVQAGGSLRLSCAASGITFTYYAMGWYRQAPGKERELVAGISRGGSTYYADSVKGRFTISRDNAKNTVYLQMNSLKPEDTAVYYCAATSYRRTGYNYWGQGTQVTVSS”, the “polyreactivity (PSR sort gate)” value was “high polyreactivity”.
For the sequence “QVQLVESGGGLVQAGGSLRLSCAASGITFTYYAMGWYRQAPGKERELVDAITDRGGRTYYSDSVKGRFTISRDNAKNTVYIQMNSLKPEDTAVYYCAAYVPQGYKLYYWGQGTQVTVSS”, the “polyreactivity (PSR sort gate)” value is “high polyreactivity”.
As for “QVQLVESGGGLVQAGGSLRLSCAASGITFVDNAMGWYRQAPGKERELVAVISSSGGSTYYADSVKGRFTISRDNAKNTVYLQMNSLKPEDTAVYYCAARNRFYRRPYDYWGQGTQVTVSS”, the “polyreactivity (PSR sort gate)” value was “high polyreactivity”.
“QVQLVESGGGLVQAGGSLRLSCAASGITFVDYVMGWYRQAPGKERELVAAISRGGSRTKYADSVKGRFTISRDNAKNTVYLQMNSLKPEDTAVYYCAAPWLVNHYYPSQEYDYWGQGTQVTVSS”: the “polyreactivity (PSR sort gate)” value is listed as “high polyreactivity”.
The same measure for “QVQLVESGGGLVQAGGSLRLSCAASGITFVFYAMGWYRQAPGKERELVAAISWSGGITYYADSVKGRFTISRDNAKNTVYLQMNSLKPEDTAVYYCAARISWEKYQAGYDYWGQGTQVTVSS”: “low polyreactivity”; for “QVQLVESGGGLVQAGGSLRLSCAASGITFVGNAMGWYRQAPGKERELVAGIRGNGGSTYYADSVKGRFTISRDNAKYTVYLQMNSLKPEDTAVYYCAAAAYYADFDYWGQGTQVTVSS”: “low polyreactivity”.
Turning to “QVQLVESGGGLVQAGGSLRLSCAASGITFVLNVMGWYRQAPGKERELVAAISWSVGGTYYADSVKGRFTISRDNAKNTVYLQMNSLKPEDTAVYYCAAGSYAYDNYGSEYWKWYGYWGQGTQVTVSS”, the “polyreactivity (PSR sort gate)” value is “low polyreactivity”.
Take “QVQLVESGGGLVQAGGSLRLSCAASGITFVLYAMGWYRQAPGKERELVAAISSGGRTKYADSVKGRFTISRDNAKNTVYLQMNSLKPEDTAVYYCATKTRYLYPAYYYWGQGTQVTVSS”: the “polyreactivity (PSR sort gate)” value is given as “high polyreactivity”.
Turning to “QVQLVESGGGLVQAGGSLRLSCAASGITFVRNAMGWYRQAPGKEREFVAAISRSGTTTYYADSVKGRFTISRDNAKNTVYLQMNSLKPEETAVYYCAAVRWVRYRTSAYEYWGQGTQVTVSS”, the “polyreactivity (PSR sort gate)” value was “high polyreactivity”.
Turning to “QVQLVESGGGLVQAGGSLRLSCAASGITFVRNAMGWYRQAPGKERELVAAISGRGGITYYADSVKGRFTISRDNAKNTVYLQMNSLKPEDTAVYYCAASSAGSSYNYWGQGTQVTVSS”, the “polyreactivity (PSR sort gate)” value was “high polyreactivity”.
Consider “QVQLVESGGGLVQAGGSLRLSCAASGITFVRYALGWYRPAPGKERELVAAISRRGGSTYYADSVKGRFTISRDNAKNTVYLQMNSLKPEDTAVYYCNAQRPKATVWQLYDSWGQGTQVTVSS”, for which the “polyreactivity (PSR sort gate)” value is given as “high polyreactivity”.
With “QVQLVESGGGLVQAGGSLRLSCAASGITFVRYTMGWYRQAPGKEREFVAGITRGGSTYYADSVKGRFTISRDNAKNTVYLQMNSLKPEDTAVYYCAARPRFLRASVEYDYWGQGTQVTVSS”, the “polyreactivity (PSR sort gate)” value is reported as “high polyreactivity”.
As for “QVQLVESGGGLVQAGGSLRLSCAASGITFVSNVMGWYRQAPGKEREFVAAITGRGDSTYADSVKGRFTISRDNAKNTVYLQMNSLKPEDTAFYYCNRESDIYSFVAMNYWGQGTQVTVSS”, the “polyreactivity (PSR sort gate)” value was “low polyreactivity”.
The same measure for “QVQLVESGGGLVQAGGSLRLSCAASGITFVSYGMGWYRQAPGKERELVAAISSGGRTYADSVKGRFTISRDNAKNTVYLQMNSLKPEDTAVYYCNARDYASGTEGDYWGQGTLVTVSS”: “low polyreactivity”.
For “QVQLVESGGGLVQAGGSLRLSCAASGITFVTYAMGWSRQAPGKERELVADISWRGTSTNYADSVKGRFTISRDNAKNTVYFQMISLKPEDTAVYYCAAKQTYTRLHYLGPSVWDNYDYWGQGTQVTVSS”, the “polyreactivity (PSR sort gate)” value is reported as “high polyreactivity”.
On to “QVQLVESGGGLVQAGGSLRLSCAASGITFVVYAMGCYRPAPGKERELVASITYSGGSTYYADSVQGRFTISRDNAKNTVYLQMTSLKPEDTAVYYCNADGYTIYYLPYSDYDAYDYWGQGTQVTVSS”, for which the “polyreactivity (PSR sort gate)” value is given as “low polyreactivity”.
With “QVQLVESGGGLVQAGGSLRLSCAASGITFVWYDMGGYRQAPGKEREFVAVISKRGGSTYYADSVKGRFTISRDNAKNTVYLQMNSLKPEDTAVYYCAASYNLYRRYYYWGQGTQVTVSS”, the “polyreactivity (PSR sort gate)” value is “high polyreactivity”.
Then “QVQLVESGGGLVQAGGSLRLSCAASGITFVWYDMGWYRQAPGKEREFVAVISKRGGSTYYADSVKGRFTISRDNAKNTVYLQMNSLKPEDTAVYYCAASYNLYRRYYYWGQGTQVTVSS”, with “high polyreactivity”.
On to “QVQLVESGGGLVQAGGSLRLSCAASGITFVYYAMGWYRQAPGKERELVAAITSDGGSTYYADSVKGRFTISRDNAKNTVYLQMNSLKPEDTAVYYCAAEWTSWSWWYGWYEFDYWGQGTQVTVSS”, for which the “polyreactivity (PSR sort gate)” value is listed as “high polyreactivity”.
In the case of “QVQLVESGGGLVQAGGSLRLSCAASGITFVYYAMGWYRQAPGKERELVASISSGGSTYYADSVKGRFTISRDNAKNTVYLQMNSLKPEDTAVYYCAAPTGWYPAYCEYEYWGQGTQVTVSS”, the “polyreactivity (PSR sort gate)” value is “low polyreactivity”.
Take “QVQLVESGGGLVQAGGSLRLSCAASGITFVYYVMGWYRQAPGKERELVAGISSGGSTYYADSVKGRFTISRDNAKNTVYLQMNSLKPEDTAVYYCAAVSTPYYGHVKRYYYWGQGTQVTVSS”: the “polyreactivity (PSR sort gate)” value is given as “high polyreactivity”.
Then “QVQLVESGGGLVQAGGSLRLSCAASGITFWGYAMGWYRQAPGKEREFVARINWSGGRTYYAESVKGRFTISRDNAKNTVYLQMNSLKPEDTAVYYCAATSLIYGYRTYDYWGQGTQVTVSS”, with “high polyreactivity”; and “QVQLVESGGGLVQAGGSLRLSCAASGITFWGYAMGWYRQAPGKEREFVARINWSGGRTYYAESVKGRFTISRDNAKNTVYLQMNSLKPEDTAVYYCNVVLRSVVSGDYWVQGTQVTVSS”, with “high polyreactivity”.
Consider “QVQLVESGGGLVQAGGSLRLSCAASGITFWPYAMGWYIQAPGKERELVAAIRASAGRTYYADSVKGRFTISRDNAKNTVYLQMNSLKPEDTAVYYCNAYGRYGKFRVEYDYWGQGTQVTVSS”, for which the “polyreactivity (PSR sort gate)” value is listed as “low polyreactivity”.
In the case of “QVQLVESGGGLVQAGGSLRLSCAASGITFWRYAMGWYRQAPGKERELVAAIDWSGGDTYYADSVKGRFTISRDNAKNTVYLQMNRLKPEDTAVYYCATDRYAYKLYDYWGQGTQVTVSS”, the “polyreactivity (PSR sort gate)” value was “low polyreactivity”.
Consider “QVQLVESGGGLVQAGGSLRLSCAASGITFWSNAMGWYRQAPGKERELVAAITSSGGSAYYADSVKGRFTISRDNAKNTVYLQMNSLKPEDTAVYYCAAPISRSAGWDSYDYWGQGTQVTVSS”, for which the “polyreactivity (PSR sort gate)” value is reported as “low polyreactivity”.
With “QVQLVESGGGLVQAGGSLRLSCAASGITFWVYAMGWYRQSPGKESELVATISRSGGRTYYADSVKGRFTISRDNAKTTVYLQMNSLKPEDTAVYYCAARYRNVLGYDYDFWGQGTQVTVSS”, the “polyreactivity (PSR sort gate)” value was “high polyreactivity”.
As for “QVQLVESGGGLVQAGGSLRLSCAASGITFWYNAMGWYRQAPGKERELVAAISGGGGSTYYADSVKGRFTISRDNAMNTVYLQMNSLKPEDTAVYYCAARQVARVYSGRYGYWGQGTQVTVSS”, the “polyreactivity (PSR sort gate)” value was “high polyreactivity”.
Consider “QVQLVESGGGLVQAGGSLRLSCAASGITFYDNAMGWYRQAPGKERELVAGISSGGRTYYADSVKGRFTISRDNAKNTVYLQMNSLKPEDTAVYYCNAASLVAYLARLGRDYWGQGTQVTVSS”, for which the “polyreactivity (PSR sort gate)” value is reported as “low polyreactivity”.
In the case of “QVQLVESGGGLVQAGGSLRLSCAASGITFYDNVMGWYRQAPGKERELVAAITSGGSTNYGDSVKGRFTFSRDNAKNTVYLQMNSLKPEETAVYYCAAQPRVVYEFPYRYGYWGQGTQVTVSS”, the “polyreactivity (PSR sort gate)” value is on record as “low polyreactivity”.
With “QVQLVESGGGLVQAGGSLRLSCAASGITFYDYAMGWYRQAPGKERELVAAISGGGITYYADSVKGRFTISRDNAKNTVYLQMNSLKPEDTAVYYCAAERYSPSVGYDYWGQGTQVTVSS”, the “polyreactivity (PSR sort gate)” value is “low polyreactivity”.
For “QVQLVESGGGLVQAGGSLRLSCAASGITFYDYDMGWYIQAPGKERELVADISYSGGGTYYADSVKGRFTISRDNAKNTVYLQMNSLKPEDTAVYYCAADSQRYYGDYYWGQGTQVTVSS”, the “polyreactivity (PSR sort gate)” value is reported as “high polyreactivity”.
As for “QVQLVESGGGLVQAGGSLRLSCAASGITFYEYAMGWYRQAHGKERELVAAISQSGGSTYYADSVKGRFTISRDNAKNTVYLQMNSLKPEDTAVYYCAADIKWSIRRAYDYWGQGTQVTVSS”, the “polyreactivity (PSR sort gate)” value was “high polyreactivity”.
On to “QVQLVESGGGLVQAGGSLRLSCAASGITFYEYAMGWYRQAPGKERELVAAITSGGTTNYADSVKGRFTISRDNAKNTVYLQMNSLKPEDTAVYYCAKDEGEGYDYWGQGTQVTVSS”, for which the “polyreactivity (PSR sort gate)” value is “low polyreactivity”.
As to “QVQLVESGGGLVQAGGSLRLSCAASGITFYFYAMGWYRQAPGKERELVAAISGSSGSTYYADSVKGRFTISRDNAKNTVYLQMNSLKPEDTAVYYCAAYNRWSGGFEYWGQGTQVTVSS”, the “polyreactivity (PSR sort gate)” value is on record as “high polyreactivity”.
